Laboratory results taken from the supplement of paper PMC12042874.
± gives the uncertainty stated by the source.

Experiment: amyloid nucleation score (Sup35N fusion, yeast selection) (log enrichment); library NNK2; higher = more nucleation; inactive = no reads after selection
Outline: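 Sup35N was fused to peptides of 20 random codons and expressed in psi-negative yeast, which were induced with 100 μM copper sulfate for 24 hours and then grown on medium lacking adenine and uracil for 7 days at 30°C. Plasmid inserts from input and output were sequenced on Illumina. The nucleation score is the DiMSum log enrichment of output over input reads, centred on the mode score of non-aggregating sequences. Sequences with under 100 input reads were left out, and random libraries had three technical output replicates.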

Row | Substance | amyloid nucleation score
1 | GTVLMRFGGCLFFVMSRQNC | 1.89 ± 0.42
2 | PDWMRGSSEYWSVGPRYCNS | 0.355 ± 0.13
3 | VYAIHGTRYCELGAPIDKLY | 0.852 ± 0.29
4 | IPRIDDSDLFRTLDF | -0.52 ± 1.1
5 | MIRLRIVYGTLDMYGLQMYS | 1.46 ± 0.27
6 | SWHFKSKHSCVFFRCEYVVS | -0.373 ± 1
7 | INRCMLIPTRFVVAYSWKCV | -1.03 ± 0.78
8 | NGNGCLAFAKTVFCWVDGLP | 7.215 ± 0.046
9 | SLPAENSFIEF | -1.25 ± 0.39
10 | TTLITVSVT | inactive
11 | LSHKSVRAKENPIQSSQCES | 1.2 ± 0.33
12 | WVFKCVSNKERNYISCACSM | 4.79 ± 0.063
13 | MRMYLGVDSENRASDMGRTR | 1.03 ± 0.36
14 | IRMVDTCRVLKLSGEPFSRD | -0.993 ± 0.78
15 | GVCRDNILRENFGGWSTSRS | 0.15 ± 0.46
16 | FGADNGSPRSE | -0.354 ± 0.76
17 | GIIDLIYCNAEEHSHWGDFA | -1.17 ± 0.62
18 | DCAWNFWFSLVYRLVISGHS | -0.38 ± 0.6
19 | GCYISLHMCLE | 3.84 ± 0.049
20 | ISLISHVLANLSVIRDHANE | -0.68 ± 0.4
21 | GLRSIGLGVQSFRSYQFSRI | -0.415 ± 0.45

Row | Substance | amyloid nucleation score
22 | EVSRKTDTGQLLSDHVFFMN | -2.23 ± 0.78
23 | RSFGSYCAGEGTRSPRDSRG | 0.172 ± 0.65
24 | NRLSELGPCFHLFTSV | 0.089 ± 1.1
25 | WSGLFVKKNVVFRVRNGVT | -0.089 ± 1.1
26 | VDTGEVNTF | 1.76 ± 0.086
27 | VRWNIVKSCAVMDSNGIMWV | 0.432 ± 0.33
28 | SNNFFNGMICSLFAGGC | 7.55 ± 0.082
29 | MRYEALMHPWSWRFR | 1.06 ± 0.12
30 | FEAFLSMWIFAPECLRAHSV | -0.288 ± 1.1
31 | LCNNPNGGIGQLKVL | 0.515 ± 0.64
32 | SSSFHKYRRALWKRKRTWVV | 5.63 ± 0.081
33 | CPTFKIKRDMSLTHRLFNIY | -1.64 ± 0.54
34 | LSHSDVKRALKWNCFPIGVC | -0.158 ± 0.28
35 | HCYSRPFESSSFMNSVSLKY | -0.149 ± 0.76
36 | PCKNIMVYNSLTDAWPCLYM | 0.093 ± 0.8
37 | VFWGILMRGVRRTFSDCAGT | -1.47 ± 0.75
38 | DRSSMTG | 0.698 ± 0.21
39 | FRNTWFCFLLKLLTS | -0.818 ± 0.42
40 | WCCKVTGHFPDTEQYYFPPP | inactive
41 | YFIAASYCDLTYLKTIDWTG | 2.76 ± 0.067
42 | AVPMMSWSFIVSYVGRNNSM | 1.7 ± 0.19

Row | Substance | amyloid nucleation score
43 | DCVNGVLFDGSPHVYGFLEW | 0.419 ± 0.32
44 | GNVITDGESMMDCKGTMRSC | 0.584 ± 0.21
45 | KRGCNQHFNSMRYLVMFLVS | -0.915 ± 0.62
46 | YVTVTNGMI | -0.447 ± 0.61
47 | ELCGLMAEPYRSHILGCGWT | 3.67 ± 0.066
48 | AITGGFSAFIRYYGVMYDVG | -0.736 ± 0.45
49 | RCIDFDSSCASTNYGSVLWA | 1.09 ± 0.38
50 | VYRMPGVSWKYVS | 0.501 ± 0.8
51 | AKVRLYVRGGSLLIGIRSVV | 0.555 ± 0.22
52 | CTAYNITYMTATSRGMSC | inactive
53 | AFCKALCIVRRYSPPPLIVA | inactive
54 | ICIVVVCDFCIYRMCATGTV | 0.735 ± 0.28
55 | FMLVV | inactive
56 | HTTLHSSAIQVWSWRLLYFV | 5.061 ± 0.049
57 | LEVRSAWGHLPFMSPEGL | -1.17 ± 0.44
58 | LFTGRNRTSTHSSDISSRN | 0.531 ± 0.66
59 | VSGMPIKMR | 0.886 ± 0.34
60 | ILYGSGVFSSG | -1.17 ± 1.1
61 | RLAVVLVPRIGYSSKSSETR | 1.11 ± 0.34
62 | SPVICRVRGGLFINMSEYNV | inactive
63 | TECITVVIWVYGAISHRSGT | -0.247 ± 0.27

Row | Substance | amyloid nucleation score
64 | SSGGGYWLLWVE | -0.559 ± 0.76
65 | VRFFYSFVPT | inactive
66 | CYSVFSLY | -0.81 ± 1
67 | LMNGVGLFNQMGWVVERYLE | -0.357 ± 0.4
68 | VSLHKRPTWLPVCIARYGWS | 0.333 ± 0.24
69 | RSCSFRRLSGSVETLSGWAK | 0.35 ± 0.43
70 | VNEIWYDLDYEKVGFV | 2.81 ± 0.074
71 | KWKASVSFFNGHWDGLFANL | 5.07 ± 0.056
72 | TCKMIAISRRGIDPGKAMHS | -1.16 ± 0.49
73 | CIFWVRCKFYGNLNFGCLYD | 7 ± 0.078
74 | TSRDFYRNAGIARFAYYNSP | -1.15 ± 0.23
75 | NMLKGMCWVTLCIWMYMRLC | 4.09 ± 0.057
76 | CNLCSDP | inactive
77 | GCKSGDQDLALRNGCRKQRS | 0.594 ± 0.45
78 | KWYICLKIIQWNCISDQC | 5.38 ± 0.054
79 | MRHRCGHKKVSGV | 1.27 ± 0.49
80 | TGLDIGLGWLYMYRGATLAI | 0.542 ± 0.35
81 | NRISGLGMSSKGKRGKVMLK | 0.493 ± 0.46
82 | NSGYIGLGLSF | -0.224 ± 0.65
83 | SCYLALKFTFRLFVLKSEGL | -0.202 ± 1
84 | VSHMNCLDMICHLWISQLVL | 1.65 ± 0.098
